Assay results reported in paper PMC8888484, “Ubr1-induced selective endophagy/autophagy protects against the endosomal and Ca^2+-induced proteostasis disease stress” (Cellular and Molecular Life Sciences: CMLS, 2022).
Values belong to the molecule of their own block, whether it stands above or below them.

Assays:
[1] = molecular target: mutants (MLC1 mutants of Fig. 3A); assay: co-IP; cell surface immunoprecipitation (cs-IP): anti-GlialCAM Ab bound to live HeLa cells 45 min on ice, unbound Ab washed off, lysis (0.4% NP-40 in co-IP assays), MLC1/GlialCAM complex precipitated, Western blot; signals normalised to precipitated MLC1; for Fig. 7G cells with siUbr1 or siNT and Flag-Ubr1-wt or -CI
[2] = molecular target: T1, HA-MLC1-S280L-Bir* (human (by the printed GeneID 23209; the …, UniProt Q15049 1-377, S280L); assay: proximity labelling; proximity biotinylation with MLC1-Bir* chimera as bait, 50 µM biotin, cs-IP with anti-GlialCAM Ab, biotinylated proteins recovered on streptavidin/neutravidin beads, Western blot for Ubr1; normalised for the PM amount of MLC1; conditions: partners not purified
T1 construct: MLC1, GeneID 23209, disease-causing variant S280L, as a chimera with Bir*; also called SL-b
T1 sequence (looked up): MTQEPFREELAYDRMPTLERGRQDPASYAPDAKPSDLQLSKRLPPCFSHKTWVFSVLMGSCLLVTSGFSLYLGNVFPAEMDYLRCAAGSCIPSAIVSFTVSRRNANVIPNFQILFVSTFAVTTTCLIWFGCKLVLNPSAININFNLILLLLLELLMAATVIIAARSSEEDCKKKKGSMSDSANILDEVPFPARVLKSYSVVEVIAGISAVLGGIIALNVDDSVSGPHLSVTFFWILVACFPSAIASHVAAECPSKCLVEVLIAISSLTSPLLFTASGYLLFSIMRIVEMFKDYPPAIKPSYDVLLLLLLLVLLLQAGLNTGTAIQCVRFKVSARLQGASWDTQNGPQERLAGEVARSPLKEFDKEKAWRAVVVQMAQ

fold association against MLC1-wt [1]: 2 to 5 fold
Molecule: CHIP (C-terminus of Hsc70-interacting protein) (from UniProt Q9UNE7 1-303)

fold biotinylation against MLC1-wt [2]: ~8 fold
B1: endogenous Ubr1 (enzyme, UniProt Q8IWV7 1-1749, looked up)
chain: MADEEAGGTERMEISAELPQTPQRLASWWDQQVDFYTAFLHHLAQLVPEIYFAEMDPDLEKQEESVQMSIFTPLEWYLFGEDPDICLEKLKHSGAFQLCGRVFKSGETTYSCRDCAIDPTCVLCMDCFQDSVHKNHRYKMHTSTGGGFCDCGDTEAWKTGPFCVNHEPGRAGTIKENSRCPLNEEVIVQARKIFPSVIKYVVEMTIWEEEKELPPELQIREKNERYYCVLFNDEHHSYDHVIYSLQRALDCELAEAQLHTTAIDKEGRRAVKAGAYAACQEAKEDIKSHSENVSQHPLHVEVLHSEIMAHQKFALRLGSWMNKIMSYSSDFRQIFCQACLREEPDSENPCLISRLMLWDAKLYKGARKILHELIFSSFFMEMEYKKLFAMEFVKYYKQLQKEYISDDHDRSISITALSVQMFTVPTLARHLIEEQNVISVITETLLEVLPEYLDRNNKFNFQGYSQDKLGRVYAVICDLKYILISKPTIWTERLRMQFLEGFRSFLKILTCMQGMEEIRRQVGQHIEVDPDWEAAIAIQMQLKNILLMFQEWCACDEELLLVAYKECHKAVMRCSTSFISSSKTVVQSCGHSLETKSYRVSEDLVSIHLPLSRTLAGLHVRLSRLGAVSRLHEFVSFEDFQVEVLVEYPLRCLVLVAQVVAEMWRRNGLSLISQVFYYQDVKCREEMYDKDIIMLQIGASLMDPNKFLLLVLQRYELAEAFNKTISTKDQDLIKQYNTLIEEMLQVLIYIVGERYVPGVGNVTKEEVTMREIIHLLCIEPMPHSAIAKNLPENENNETGLENVINKVATFKKPGVSGHGVYELKDESLKDFNMYFYHYSKTQHSKAEHMQKKRRKQENKDEALPPPPPPEFCPAFSKVINLLNCDIMMYILRTVFERAIDTDSNLWTEGMLQMAFHILALGLLEEKQQLQKAPEEEVTFDFYHKASRLGSSAMNIQMLLEKLKGIPQLEGQKDMITWILQMFDTVKRLREKSCLIVATTSGSESIKNDEITHDKEKAERKRKAEAARLHRQKIMAQMSALQKNFIETHKLMYDNTSEMPGKEDSIMEEESTPAVSDYSRIALGPKRGPSVTEKEVLTCILCQEEQEVKIENNAMVLSACVQKSTALTQHRGKPIELSGEALDPLFMDPDLAYGTYTGSCGHVMHAVCWQKYFEAVQLSSQQRIHVDLFDLESGEYLCPLCKSLCNTVIPIIPLQPQKINSENADALAQLLTLARWIQTVLARISGYNIRHAKGENPIPIFFNQGMGDSTLEFHSILSFGVESSIKYSNSIKEMVILFATTIYRIGLKVPPDERDPRVPMLTWSTCAFTIQAIENLLGDEGKPLFGALQNRQHNGLKALMQFAVAQRITCPQVLIQKHLVRLLSVVLPNIKSEDTPCLLSIDLFHVLVGAVLAFPSLYWDDPVDLQPSSVSSSYNHLYLFHLITMAHMLQILLTVDTGLPLAQVQEDSEEAHSASSFFAEISQYTSGSIGCDIPGWYLWVSLKNGITPYLRCAALFFHYLLGVTPPEELHTNSAEGEYSALCSYLSLPTNLFLLFQEYWDTVRPLLQRWCADPALLNCLKQKNTVVRYPRKRNSLIELPDDYSCLLNQASHFRCPRSADDERKHPVLCLFCGAILCSQNICCQEIVNGEEVGACIFHALHCGAGVCIFLKIRECRVVLVEGKARGCAYPAPYLDEYGETDPGLKRGNPLHLSRERYRKLHLVWQQHCIIEEIARSQETNQMLFGFNWQLL
modifications: biotinylated in cells by MLC1-Bir*
notes: Ubr1, endogenous, detected with anti-Ubr1 (Abcam)
